Reference: patent US20230137139A1, “BIOSYNTHESIS OF CANNABINOIDS AND C[…]” (priority 2020, published 2023)

Legend:
[1] = test system: CBCA, THCA, and CBDA production; assay: In vivo TS activity assay, Example 2 protein engineering of A. niger CBCAS, cultures fed olivetolic acid; type: cell-based, S. cerevisiae; details: for average CBCA titer compared with the A. niger positive control / Mean CBCA / Mean CBDA / Mean THCA: secondary screen; for Mean CBCA / Mean CBDA / Mean THCA: olivetolic acid (Table 8); for % CBCA / % CBDA / % THCA: share of terminal cannabinoid product profile
Description: (§1) An assay to detect TS activity was conducted as follows: each thawed glycerol stock of candidate CBCAS transformants was stamped into a well of YEP+4% dextrose media. Samples were incubated at 30° C. in a shaking incubator for 2 days. A portion of each of the resulting cultures was stamped into a well of YEP+4% galactose+1 mM olivetolic acid (FIG. 1 Structure 6a). Samples were incubated at 20° C. and shaken in a shaking incubator for 4 days. Every 24 hours during those 4 days, 2% galactose and 1 mM olivetolic acid were spiked into the cultures. Sodium citrate buffer adjusted to pH 5.5 was added to each well at a final concentration of 100 mM. Samples were incubated at 20° C. and shaken in a shaking incubator for 2 days. A portion of each of the resulting production cultures was stamped into a well of phosphate buffered saline (PBS). Optical measurements were taken on a plate reader, with absorbance measured at 600 nm and fluorescence at 528 nm with 485 nm excitation. Samples were incubated at 30° C. in a shaking incubator for 2 days. 100% methanol was stamped into the production cultures in half-height deepwell plates. Plates were heat sealed and frozen. Samples were then thawed for 30 min and spun down at 4° C. A portion of the supernatant was stamped into half-area 96 well plates. CBCA, THCA, and CBDA production in the samples was quantified via liquid chromatography-mass spectrometry (LC-MS).
(§2) To determine whether engineering of the A. niger CBCAS identified in Example 1 (corresponding to SEQ ID NO: 29 (with signal peptides); SEQ ID NO: 27 (without signal peptides and including an N-terminal methionine (UniProt accession No. A0A254UC34)); or SEQ ID NO: 25 (without signal peptides and without the N-terminal methionine)), could alter CBCAS substrate specificity, product specificity and/or amounts of products produced, point mutations were generated in A. niger CBCAS and the mutant versions of the protein were expressed in S. cerevisiae. A library containing 1047 A. niger CBCAS mutants was generated and screened. As in Example 1, each CBCAS mutant in the library, as well as the enzymes expressed by positive control strains, included an N-terminal MFalpha2 signal peptide (SEQ ID NO: 16) (with a methionine residue added at the N-terminus of the MFalpha2 signal peptide) and a C-terminal HDEL signal peptide (SEQ ID NO: 17).
Production of compounds of Formulae (9), (10), and/or (11), including compounds of Formulae (9a), (10a), and/or (11a) by strains expressing the mutated versions of A. niger CBCAS was quantified and compared to the production of the same compounds by a strain expressing wild-type A. niger CBCAS, a strain expressing a C. sativa THCAS, and a strain expressing a C. sativa CBDAS. The strains were screened using the same assay described in Example 1. Production of CBCA, THCA, and/or CBDA in the samples was quantified via LC-MS.
(§3) Of the original 1047 library members, 55 strains were elevated to a secondary screen to verify CBCA production. The experimental protocol for the secondary screen was identical to the primary screen, except that additional biological replicates were included per strain, and replicate production cultures for each strain were separately fed 1 mM boluses of olivetolic acid or 1 mM boluses of divaric acid. All strains were screened in quadruplicate.

[2] = test system: CBCVA, THCVA, and CBDVA production; assay: In vivo TS activity assay, Example 2 protein engineering of A. niger CBCAS, cultures fed divaric acid; type: cell-based, S. cerevisiae; details: for Mean CBCVA / Mean CBDVA / Mean THCVA: S. cerevisiae strains expressing A. niger CBCAS mutants; for Mean CBCVA / Mean CBDVA / Mean THCVA / average CBCVA titer compared with the A. niger positive control: secondary screen; for Mean CBCVA / Mean CBDVA / Mean THCVA / % CBCVA / % CBDVA / % THCVA: fed divaric acid; for % CBCVA / % CBDVA / % THCVA: share of terminal cannabinoid product profile
Description: as §1, §2, §3

| Molecule | average CBCA titer compared with the A. niger positive control [1] | Mean CBCA [1] [µg/L] | Mean CBDA [1] [µg/L] | Mean THCA [1] [µg/L] | % CBCA [1] [%] | % CBDA [1] [%] | % THCA [1] [%] | Mean CBCVA [2] [µg/L] | Mean CBDVA [2] [µg/L] | Mean THCVA [2] [µg/L] | % CBCVA [2] [%] | % CBDVA [2] [%] | % THCVA [2] [%] | average CBCVA titer compared with the A. niger positive control [2] |
| --- | --- | --- | --- | --- | --- | --- | --- | --- | --- | --- | --- | --- | --- | --- |
| t878470 (protein, expressed in S. cerevisiae strain) MGNTTSIAGRDCLISALGGNSALAVFPNELLWTADVHEYNLNLPVTPAAITYPETAQQIAAVVKCASDYDYKVQARSGGHSFGNYGLGGADGAVVVDMKHFTQFSMDDETYEAVIGPGTTLNDVDIELYNNGKRAMAHGVCPTIKTGGHFTIGGLGPTARQWGLALDHVEEVEVVLANSSIVRASNTQNQDVFFAVKGAAANFGIVTEFKVRTEPAPGLAVQYSYTFNLGSTAEKAQFVKDWQSFISAKNLTRQFYNNMVIFDGDIILEGLFFGSKEQYDALGLEDHFAPKNPGNILVLTDWLGMVGHALEDTILKLVGNTPTWFYAKSLGFRQDTLIPSAGIDEFFEYIANHTAGTPAWFVTLSLEGGAINDVAEDATAYAHRDVLFWVQLFMVNPVGPISDTTYEFTDGLYDVLARAVPESVGHAYLGCPDPRMEDAQQKYWRTNLPRLQELKEELDPKNTFHHPQGVMPA | higher | 64502.70 | 10538.52 | 2739.24 | 82.93 | 13.55 | 3.52 | 3226.77 | 0.00 | 1646.54 | 66.21 | 0.00 | 33.79 | – |
| t865746 (protein, expressed in S. cerevisiae strain) MGNTTSIAGRDCLISALGGNSALAVFPNELLWTADVHEYNLNLPVTPAAITYPETAAQIAGVVKCASDYDYKVQARSGGHSFGNYGLGGADGAVVVDMKHFTQFSMDDETYEAVIGPGTTLNDVDIELYNNGKRAMAHGVCPTIKTGGHFTIGGLGPTARQWGLALDHVEEVEVVLANSSIVRASNTQNQDVFFAVKGAAANFGIVTEFKVRTEPAPGLAVQYSYTFNLGSTAEKAQFVKDWQSFISAKNLTRQFYNNMVIFDGDIILEGLFFGSKEQYDALGLEDHFAPKNPGNILVLTDWLGMVGHALEDTILKLVGNTPTWFYAKSLGFRQDTLIPSAGIDEFFEYIANHTAGTPAWFVTLSLEGGAINDVAEDATAYAHRDALFWVQLFMVNPVGPISDTTYEFTDGLYDVLARAVPESVGHAYLGCPDPRMEDAQQKYWRTNLPRLQELKEELDPKNTFHHPQGVMPA | higher | 49195.03 | 9456.09 | 2882.16 | 79.95 | 15.37 | 4.68 | 4751.98 | 0.00 | 2061.14 | 69.75 | 0.00 | 30.25 | higher |
| t865729 (protein) MGNTTSIAGRDCLISALGGNSALAVFPNELLWTADVHEYNLNLPVTPAAITYPETAEQIAGVVKCASDYDYKVQARSGGHSFGNYGLGGADGAVVVDMKHFTQFSMDDETYEAVIGPGTTLNDVDIELYNSGKRAMAHGVCPTIKTGGHFTIGGLGPTARQWGLALDHVEEVEVVLANSSIVRASNTQNQDVFFAVKGAAANFGIVTEFKVRTEPAPGLAVQYSYTFNLGSTAEKAQFVKDWQSFISAKNLTRQFYNNMVIFDGDIILEGLFFGSKEQYDALGLEDHFAPKNPGNILVLTDWLGMVGHALEDTILKLVGNTPTWFYAKSLGFRQDTLIPSAGIDEFFEYIANHTAGTPAWFVTLSLEGGAINDVAEDATAYAHRDVLFWVQLFMVNPVGPISDTTYEFTDGLYDVLARAVPESVGHAYLGCPDPRMEDAQQKYWRTNLPRLQELKEELDPKNTFHHPQGVMPA | higher | 32213.25 | 8392.06 | 1856.57 | 75.86 | 19.76 | 4.37 | 3685.70 | 0.00 | 1839.38 | 66.71 | 0.00 | 33.29 | higher |
| t865743 (protein) MGNTTSIAGRDCLISALGGNSALAVFPNELLWTADVHEYNLNLPVTPAAITYPETAAQIAGVVKCASDYDYKVQARSGGHSFGNYGLGGADGAVVVDMKHFTQFSMDDETYEAVIGPGTTLNDVDIELYNNGKRAMAHGVCPTIKTGGHFTIGGLGPTARQWGLALDHVEEVEVVLANSSIVRASNTQNQDVFFAVKGAAANFGIVTEFKVRTEPAPGLAVQYSYTFNLGSTAEKAQFVKDWQSFISAKNLTRQFYNNMMIFDGDIILEGLFFGSKEQYDALGLEDHFAPKNPGNILVLTDWLGMVGHALEDTILKLVGNTPTWFYAKSLGFRQDTLIPSAGIDEFFEYIANHTAGTPAWFVTLSLEGGAINDVAEDATAYAHRDVLFWVQLFMVNPVGPISDTTYEFTDGLYDVLARAVPESVGHAYLGCPDPRMEDAQQKYWRTNLPRLQELKEELDPKNTFHHPQGVMPA | higher | 58061.40 | 11245.27 | 3389.10 | 79.87 | 15.47 | 4.66 | 4972.60 | 0.00 | 2989.22 | 62.46 | 0.00 | 37.54 | higher |
| t865714 (protein) MGNTTSIAGRDCLISALGGNSALAVFPNELLWTADVHEYNLNLPVTPAAITYPETAAQIAGVVKCASDYDYKVQARSGGHSFGNYGLGGADGAVVVDMKHFTQFSMDDETYEAVIGPGTTLNDVDIELYNNGKRAMAHGVCPTIKTGGHFTIGGLGPTARQWGLALDHVEEVEVVLANSSIVRASNTQNQDVFFAVKGAAANFGIVTEFKVRTEPAPGLAVQYSYTFNLGSTAEKAQFVKDWQSFISAKNLTRQFYNNMVIFDGDIILEGLFFGSKEQYDALGLEDHFAPKNPGNILVLTDWLGMVGHALEDTILKLVGNTPTWFYAKSLGFRQDTLIPSAGIDEFFEYIANHTAGTPAWFVTLSLEGGAINDVAEDATAYAHRDVLFWVQLFTVNPVGPISDTTYEFTDGLYDVLARAVPESVGHAYLGCPDPRMEDAQQKYWRTNLPRLQELKEELDPKNTFHHPQGVMPA | higher | 32311.22 | 6827.61 | 2172.74 | 78.21 | 16.53 | 5.26 | 1775.08 | 0.00 | 1101.76 | 61.70 | 0.00 | 38.30 | – |
| t865737 (protein) MGNTTSIAGRDCLISALGGNSALAVFPNELLWTADVHEYNLNLPVTPAAITYPETAAQIAGIVKCASDYDYKVQARSGGHSFGNYGLGGADGAVVVDMKHFTQFSMDDETYEAVIGPGTTLNDVDIELYNNGKRAMAHGVCPTIKTGGHFTIGGLGPTARQWGLALDHVEEVEVVLANSSIVRASNTQNQDVFFAVKGAAANFGIVTEFKVRTEPAPGLAVQYSYTFNLGSTAEKAQFVKDWQSFISAKNLTRQFYNNMVIFDGDIILEGLFFGSKEQYDALGLEDHFAPKNPGNILVLTDWLGMVGHALEDTILKLVGNTPTWFYAKSLGFRQDTLIPSAGIDEFFEYIANHTAGTPAWFVTLSLEGGAINDVAEDATAYAHRDVLFWVQLFMVNPVGPISDTTYEFTDGLYDVLARAVPESVGHAYLGCPDPRMEDAQQKYWRTNLPRLQELKEELDPKNTFHHPQGVMPA | higher | 53771.53 | 10699.35 | 2873.74 | 79.85 | 15.89 | 4.27 | 4271.01 | 0.00 | 2136.23 | 66.66 | 0.00 | 33.34 | higher |
